“Also recorded” adds a separate entry of the source. Read-outs that look alike come from different tables or passages of the source.
Key:
[1] = Kinetic parameters of aaKASIII and ecKASIII (spectrophotometric enzyme assay); assay type: biochemical
Method: Therefore, aaKASIII was assayed with 3-hydroxybutyryl-CoA as a substrate, and its specific activity was determined using an in vitro spectrophotometric enzyme assay. KASIII enzyme assays were carried out spectrophotometrically using 400 μM ACP, 400 μM malonyl-CoA, 10-400 μM various acyl-CoAs, 400 μM NADPH, 1 mM DTT, 6 mg/ml FabD, 1.5 mg/ml FabG, and either 4 mg/ml of aaKASIII or 9.5 mg/ml of ecKASIII. The specific activity for this reaction catalysed by aaKASIII was 5-fold and 3-fold higher with isobutyryl-CoA and 3-hydroxybutyryl-CoA, respectively, than that obtained with acetyl-CoA.

[2] = assay type: binding; conditions: ligand in 50-fold molar excess, relative to water control
[3] = tested on: B. subtilis ΔyjaXΔyhfB mutant strain; assay: Genetic complementation of B. subtilis ΔyjaXΔyhfB double mutant with KASIII genes; conditions: grown without exogenous branched-chain fatty acids, IPTG induced
Method: Genetic complementation of the B. subtilis ΔyjaXΔyhfB double mutant strain with aaKASIII, taKASIII or ecKASIII expression vectors was conducted using pUCB-erm-derived plasmids carrying the different KASIII ORF sequences. In these vectors each of the different KASIII ORFs were under the control of the Pspac promoter and were inserted between the downstream and upstream DNA fragments of the 135-bp ORF in the ΔyhfB allele of the ΔyjaXΔyhfB::erm double mutant.
The B. subtilis ΔyjaXΔyhfB mutant strain was used as a vehicle to screen for KASIII enzymes that can utilize branched-chain acyl-CoA substrates and can therefore synthesize branched-chain fatty acids, thereby rescuing the lethal ΔyjaXΔyhfB deletion phenotype. […] The resulting three B. subtilis ΔyjaXΔyhfB mutant strains, each expressing one of the recombinant KASIII genes (due to the inclusion of the inducer IPTG in the media), were grown in the absence of exogenously supplied branched-chain fatty acids.

[4] = Spectrophotometric coupled assay (FabD/FabG, NADPH at 340 nm) of KASIII specific activity with acyl-CoA substrates; conditions: for Specific Activity with Isobutyryl-CoA: substrate isobutyryl-CoA
Method: The method comprises (i) incubating holo-ACP, malonyl-CoA, acyl-CoA, NADPH, and malonyl-CoA:ACP transacylase (FabD), (ii) adding KASIII and 3-ketoacyl-ACP reductase (FabG), and (iii) measuring the change in absorbance at 340 nm when NADPH is converted to NADP+ during reduction of 3-ketoacyl-ACP to 3-hydroxyl-acyl ACP by FabG.
Activity of A. acidocaldarius KASIII with different acyl-CoA substrates (acetyl-CoA, isobutyryl-CoA and 3-hydroxybutyryl-CoA (Sigma-Aldrich)) was ascertained by a coupled assay. The assay was performed in 96-well plate format with three replicates for each reaction condition. In a total volume of 100 μl for each reaction the reaction mix containing 100 μM holo-ACP, 200 μM malonyl-CoA, 10 mM DTT, 50 μM acyl-CoA substrate (either acetyl-CoA, isobutyryl-CoA or 3-hydroxy-butyryl-CoA) and 200 μM NADPH in 0.1 M sodium phosphate buffer (pH 7.2) was pre-incubated with 60 μg of FabD for two minutes. The reaction was started by the addition of 30 μg of FabG and varying concentrations of A. acidocaldarius (0.5-15 μg). Change in absorbance of NADPH that was being converted to NADP^+ during reduction of 3-ketoacyl-ACP 3-hydroxy-acyl-ACP by FabG was recorded at 340 nm using a Biotek multi-plate reader.
Spectrophotometric assay was used to assess the activity of A. acidocaldarius KASIII with various acyl-CoA substrates. The assay coupled the appearance of the KASIII-product (3-ketoacyl-ACP) to the oxidation of NADPH, catalyzed by 3-ketoacyl-ACP reductase (FabG).
KASIII enzymatic activity was ascertained via spectrophotometric assay, which coupled the appearance of 3-ketoacyl-ACP to the oxidation of NADPH, using the E. coli FabG protein to reduce 3-ketoacyl-ACP to 3-hydroxyacyl-ACP. The assay was performed in a 96-well plate-format with three technical replicates for each reaction condition. In a total volume of 100 μl for each reaction, the reaction mix contained 100 μM holo-ACP, 200 μM malonyl-CoA, 10 mM DTT, 50 μM acyl-CoA substrate, and 200 μM NADPH in 0.1 M sodium phosphate buffer (pH 7.2). This mixture was pre-incubated with 60 μg of FabD for two minutes to initiate synthesis of malonyl-ACP from malonyl-CoA and holo-ACP. The reaction was then started by the addition of 30 μg of FabG and varying concentrations of KASIII enzyme (0.5-15 μg). As KASIII catalysed the condensation of acyl-CoA with malonyl-ACP to form 3-ketoacyl-ACP, FabG reduced the 3-ketoacyl-ACP intermediate to 3-hydroxy-acyl ACP in the presence of NADPH.

[5] = Melting temperatures (Tm) of KASIII enzymes without ligand; assay type: physicochemical; conditions: in water, no ligand, baseline Tm
[6] = Saturation Transfer Difference NMR of KASIII enzymes with acetyl-CoA or isobutyryl-CoA; assay type: binding
Method: NMR experiments were performed at 25° C. on a Bruker AV700 MHz spectrometer equipped with a 5 mm HCN cryoprobe. Samples for STD NMR experiments were prepared in 0.1 M sodium phosphate buffer (pH 7.4) with 5% D2O. The protein/ligand ratio was set as 1:100 with KASIII concentration in the 20-25 μM range. Saturation was applied as CW pulse with a power of 58-60 Hz, with on-resonance pulses at 0.62 ppm and 6.86 ppm for upfield and downfield, respectively. The off-resonance pulse was applied at 45 ppm. 3-9-19 WATERGATE suppression was used with a T1-ρ filter. Saturation time of five seconds with an additional delay of 5.1 seconds was used. A set of three replicates was acquired, with 32 scans in each replicate, for each STD NMR experiment of KASIII wild-type or mutated enzyme with a ligand, which was either acetyl-CoA or isobutyryl-CoA (Sigma-Aldrich, St. Louis, Mo.). The reference and the saturated spectra were obtained in an interleaved manner. Resonance assignments of 1H NMR spectra of free ligands were completed using ID 1H and COSY.
Control experiments were carried out by applying on- and off-resonance saturation pulses either to the ligand in the absence of protein, or to the ligand in the presence of denatured protein.
Relative STD effects (ASTD) were calculated according to the equation ASTD=(Io−Isat)/Io where Isat is the signal intensity of the saturated spectrum and Io is the signal intensity of the reference spectrum (Mayer et al., J. Am. Chem. Soc. 123: 6108-6117 (2001)). STD amplification factor was calculated according to the equation: STDaf=ASTD×molar ligand excess.
STD NMR experiments elucidated interactions of these purified enzymes (both wild-type and mutated) with straight-chain substrate (acetyl-CoA) and branched-chain substrate (isobutyryl-CoA) and enabled mapping of binding epitopes on the two substrates. Relative saturation transfer to each of the binding epitopes was measured and converted to the STD amplification factor (STDaf), which is an indicator of ligand binding (Mayer et al., J. Am. Chem. Soc. 123: 6108-6117 (2001)). Ligand epitopes with high STDaf values are assumed to receive higher saturation transfer from the enzyme, and thus are in close contact with the enzyme.

[7] = tested on: B. subtilis FabH deletion mutant; assay: Fatty acid production by recombinant KASIII in B. subtilis FabH deletion mutant; assay type: cell-based; conditions: B. subtilis FabH deletion mutant rescued by the recombinant KASIII

E. coli KASIII Wild-type: E. coli 3-ketoacyl-ACP synthase III encoded by fabH, GenBank AAG55837.1, amino acid sequence SEQ ID NO:62
Kinetic parameters (whole line) ([1]; substrate 3-OH-butyryl-CoA): not a substrate | Km ([1]; substrate acetyl-CoA): 96.8 ± 4.7 µM | Specific Activity ([1]; substrate acetyl-CoA): 447 ± 68 nmol/mg/min | Vmax ([1]; substrate acetyl-CoA): 0.00033 ± 1e-05 µmol/s | kcal ([1]; substrate acetyl-CoA): 0.0214 ± 0.00093 s⁻¹ | Kinetic parameters (whole line) ([1]; substrate isobutyryl-CoA): not a substrate | Thermal shift: increase in Tm with acetyl-CoA ([2]; listed as ecKASIII): bound; also recorded: positive thermal shifts | Thermal shift: increase in Tm with propionyl-CoA ([2]; listed as ecKASIII): bound; also recorded: positive thermal shifts | Rescue of the lethal phenotype of the B. subtilis ΔyjaXΔyhfB mutant strain [3]: could not | Specific Activity with Acetyl-CoA ([4]; substrate acetyl-CoA, n.d. = not detectable): 447 ± 68 nmol/min/mg | Specific Activity with Isobutyryl-CoA ([4]; n.d. = not detectable): 36 ± 14 nmol/min/mg | Melting temperature (Tm) without ligand [5]: 55.0 ± 0.18 °C | Melting temperature (Tm) without ligand ([5]; listed as ecKASIII): ~55.0 °C | STD amplification factor (STDaf), HAP proton of acetyl-CoA ([6]; protein/ligand 1:100, 25° C.): ~6.0 | STD amplification factor (STDaf), HB proton of isobutyryl-CoA ([6]; protein/ligand 1:100, 25° C.): ~4.0 | STD amplification factor (STDaf), HT proton of acetyl-CoA ([6]; protein/ligand 1:100, 25° C.): ~5.0 | STD amplification factor (STDaf), HT proton of isobutyryl-CoA ([6]; protein/ligand 1:100, 25° C.): 2.5

B1: B. subtilis KASIIIa M213L: B. subtilis KASIIIA single mutant M213L, amino acid sequence SEQ ID NO:122 (protein)
chain: MKAGILGVGRYIPEKVLTNHDLEKMVETSDEWIRTRTGIEERRIAADDVFSSHMAVAAAKNALEQAEVAAEDLDMILVATVTPDQSFPTVSCMIQEQLGAKKACAMDISAACAGFMYGVVTGKQFIESGTYKHVLVVGVEKLSSITDWEDRNTAVLFGDGAGAAVVGPVSDDRGILSFELGADGTGGQHLYLNEKRHTIMNGREVFKFAVRQLGESCVNVIEKAGLSKEDVDFLIPHQANIRIMEAARERLELPVEKMSKTVHKYGNTSAASIPISLVEELEAGKIKDGDVVVMVGFGGGLTWGAIAIRWGR
modifications: B. subtilis KASIIIA mutant; (213)..(213) methionine at amino acid position 213 replaced with leucine
Specific Activity with Isobutyryl-CoA ([4]; n.d. = not detectable): 156 ± 47 nmol/min/mg | Decrease in STDaf for acetyl-CoA HT proton ([6]; mutant vs wild-type): 40% | Decrease in saturation transfer/STDaf for isobutyryl-CoA HT and HB protons in comparison to the wild-type ([6]; mutant vs wild-type): 60-70%

B2: B. subtilis KASIIIb Wild-type: B. subtilis KASIIIB, bfabHB (yhfB) locus, GenBank CAB12857.1, amino acid sequence SEQ ID NO:66 (protein)
chain: MSKAKITAIGTYAPSRRLTNADLEKIVDTSDEWIVQRTGMRERRIADEHQFTSDLCIEAVKNLKSRYKGTLDDVDMILVATTTSDYAFPSTACRVQEYFGWESTGALDINATCAGLTYGLHLANGLITSGLHQKILVIAGETLSKVTDYTDRTTCVLFGDAAGALLVERDEETPGFLASVQGTSGNGGDILYRAGLRNEINGVQLVGSGKMVQNGREVYKWAARTVPGEFERLLHKAGLSSDDLDWFVPHSANLRMIESICEKTPFPIEKTLTSVEHYGNTSSVSIVLALDLAVKAGKLKKDQIVLLFGFGGGLTYTGLLIKWGM
modifications: B. subtilis
Thermal shift: increase in Tm with 3-hydroxybutyryl-CoA [2]: thermally stabilized | Thermal shift: increase in Tm with butyryl-CoA [2]: ≥ 6 °C | Thermal shift: increase in Tm with crotonyl-CoA [2]: ≥ 6 °C | Thermal shift: increase in Tm with isobutyryl-CoA [2]: ≥ 6 °C | Thermal shift: increase in Tm with isovaleryl-CoA [2]: ≥ 6 °C | Thermal shift: increase in Tm with methylmalonyl-CoA [2]: ≥ 6 °C | Thermal shift: increase in Tm with phenylacetyl-CoA [2]: ≥ 6 °C | Thermal shift: increase in Tm with propionyl-CoA [2]: ≥ 6 °C | Thermal shift: increase in Tm with benzoyl-CoA ([2]; listed as bsKASIIIb): destabilized the bsKASIIIb protein | Thermal shift: increase in Tm with hexanoyl-CoA ([2]; listed as bsKASIIIb): destabilized the bsKASIIIb protein | Specific Activity with Isobutyryl-CoA ([4]; n.d. = not detectable): 279 ± 8 nmol/min/mg | Melting temperature (Tm) without ligand [5]: 48.7 ± 0.24 °C | Melting temperature (Tm) without ligand ([5]; listed as bsKASIIIb): ~48.7 °C

B3: KASIII from Bacteroides vulgatus: KASIII from Bacteroides vulgatus, GenBank ABR38167.1 (protein, UniProt A6KXK3 1-334, looked up)
Beta-ketoacyl-[acyl-carrier-pr …: MEKINAVITGVGGYVPDYVLTNEEISRMVDTNDEWIMTRIGVKERRILNEEGLGTSYMARKAAKQLMQKTASNPDDIDAVIVATTTPDYHFPSTASILCDKLGLKNAFAFDLQAACCGFLYLMETAASLIASGRHKKIIIVGADKMSSMVNYQDRATCPIFGDGAAACMVEATTEDYGIMDSILRTDGKGLPFLHMKAGGSVCPPSYFTVDHKMHYLYQEGRTVFKYAVSNMSDITATIAEKNGLNKDNIDWVIPHQANLRIIDAVASRLEVPLEKVMINIQRYGNTSGATLPLCLWDYEKQLKKGDNLIFTAFGAGFTYGAVYVKWGYDGSKR
Fatty acid content: Anteiso-fatty acids [7]: 70.43 mole % | Fatty acid content: Even-number iso-fatty acids [7]: 1.73 mole % | Fatty acid content: Even-number normal fatty acids [7]: 9.51 mole % | Fatty acid content: Odd-number iso-fatty acids [7]: 18.24 mole % | Fatty acid content: Odd-number normal fatty acids [7]: 0.09 mole % | Substrate preference in the spectrophotometric assay ([4]; acetyl-CoA, isobutyryl-CoA and 3-hydroxybutyryl-CoA tested): higher preference for isobutyryl-CoA and 3-hydroxybutyryl-CoA as compared to acetyl-CoA

Source: patent US10184140B2, “Materials and methods for production of bi-functional fatty acids in recombinant bacteria” (IOWA STATE UNIVERSITY RESEARCH FOUNDATION, INC., priority 2013, dated 2019)
